Assay results from US20090130105A1 (Biogen, published 2009).
One block for each binder: values may come before it.

Experiments:
[1] = biological target: T1, human IGF-1R on H322M non-small cell lung cancer cells (human, UniProt P08069 31-1367); assay: flow cytometry on H322M cells, anti-human Fc PE secondary (FIG. 55B)
T1 construct: Endogenous receptor of the tumor cell line; also called cell surface IGF-1R
Description: Cell lines were routinely cultured no greater than 20 passages. Flow cyotometric analysis of antibody binding to human cancer cells. Cells were lifted with cell dissociation buffer (Gibco catalog #13151-014), counted, washed and adjusted to 5×10⁶ cells/ml. Cells (2.5×10⁵; 50 uL) were added to each well of a 96-well round bottom plate (Costar #3799). Purified antibodies were tested at a starting concentration of 300 nM with serial half-log dilutions in FACS buffer. FACS buffer used throughout the assay was PBS (without Ca++/Mg++) containing 5% FBS. Samples were incubated on ice for 30 minutes, washed 3× with 200 uL FACS buffer and centrifuged at 1200 rpm for 3 minutes at 4° C. C2B8 (rituximab, IgG1) was used as a negative control. […] Samples were incubated for an additional 30 minutes on ice, shielded from light. Cells were washed as described above and resuspended in 100 μl FACS buffer containing propidium iodide (PI) for dead cell exclusion (BD Pharmingen, catalog# 51-66211E or 556463; use at 1:500 final in FACS buffer). Samples were run in triplicate using the FACSArray flow cytometer (Becton Dickinson) with 5000 live events collected per sample. Data analysis was performed using the GraphPad Prism version 5.0 software (GraphPad Software Inc., 11452 El Camino Real #215, San Diego, Calif. 92130). Results. […]

[2] = biological target: T2, human IGF-1R(1-902)-His10 (human, UniProt P08069 31-932); assay: SPR competition (Biacore 3000): soluble antibody titrated into 40 nM hIGF-1R-His, mixture injected over immobilized M13-C06
T2 construct: Bought from R&D Systems (305-GR-050); also called hIGF-1R-His10; hIGF-1R-His
T2 sequence (P08069 other isoform, or with tags, fused parts or gaps): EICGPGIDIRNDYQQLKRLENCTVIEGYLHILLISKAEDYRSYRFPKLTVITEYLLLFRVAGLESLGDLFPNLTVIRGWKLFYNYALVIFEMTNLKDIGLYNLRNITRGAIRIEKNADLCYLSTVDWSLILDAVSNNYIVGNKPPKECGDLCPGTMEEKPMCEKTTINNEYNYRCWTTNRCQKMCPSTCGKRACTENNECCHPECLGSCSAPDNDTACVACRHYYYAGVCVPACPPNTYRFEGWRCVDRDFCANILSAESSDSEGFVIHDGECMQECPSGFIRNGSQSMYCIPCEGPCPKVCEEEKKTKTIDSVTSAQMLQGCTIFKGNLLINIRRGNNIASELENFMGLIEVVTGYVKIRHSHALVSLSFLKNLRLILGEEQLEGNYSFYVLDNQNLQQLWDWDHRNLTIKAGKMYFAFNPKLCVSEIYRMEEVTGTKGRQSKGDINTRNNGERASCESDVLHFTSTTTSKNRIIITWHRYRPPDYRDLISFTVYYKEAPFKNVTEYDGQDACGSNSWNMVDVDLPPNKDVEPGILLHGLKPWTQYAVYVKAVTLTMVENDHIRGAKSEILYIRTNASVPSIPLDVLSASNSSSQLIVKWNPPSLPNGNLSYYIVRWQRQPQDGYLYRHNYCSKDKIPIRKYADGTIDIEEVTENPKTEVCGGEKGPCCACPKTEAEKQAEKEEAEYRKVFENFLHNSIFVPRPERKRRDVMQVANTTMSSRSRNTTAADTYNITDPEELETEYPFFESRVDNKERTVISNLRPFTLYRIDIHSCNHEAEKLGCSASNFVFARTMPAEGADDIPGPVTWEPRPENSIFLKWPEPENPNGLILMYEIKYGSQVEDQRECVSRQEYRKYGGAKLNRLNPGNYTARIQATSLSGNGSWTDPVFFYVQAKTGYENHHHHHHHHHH
Description: Regeneration was achieved by three 10 μL injections of 0.1 M glycine, pH 2.0. 100% hIGF-1R-His binding to each antibody was determined by the signal above the baseline under mass transport-limiting conditions 60 seconds into the injection.

[3] = biological target: T1, human IGF-1R on H322M non-small cell …; assay: cell-based or functional assay
sIGF-1R(1-903) [4] = biological target: T3, sIGF-1R(1-903) (human, UniProt P08069 31-933); assay: SEC with static light scattering
T3 construct: also called soluble IGF-1R ectodomain
T3 sequence (P08069 31-933): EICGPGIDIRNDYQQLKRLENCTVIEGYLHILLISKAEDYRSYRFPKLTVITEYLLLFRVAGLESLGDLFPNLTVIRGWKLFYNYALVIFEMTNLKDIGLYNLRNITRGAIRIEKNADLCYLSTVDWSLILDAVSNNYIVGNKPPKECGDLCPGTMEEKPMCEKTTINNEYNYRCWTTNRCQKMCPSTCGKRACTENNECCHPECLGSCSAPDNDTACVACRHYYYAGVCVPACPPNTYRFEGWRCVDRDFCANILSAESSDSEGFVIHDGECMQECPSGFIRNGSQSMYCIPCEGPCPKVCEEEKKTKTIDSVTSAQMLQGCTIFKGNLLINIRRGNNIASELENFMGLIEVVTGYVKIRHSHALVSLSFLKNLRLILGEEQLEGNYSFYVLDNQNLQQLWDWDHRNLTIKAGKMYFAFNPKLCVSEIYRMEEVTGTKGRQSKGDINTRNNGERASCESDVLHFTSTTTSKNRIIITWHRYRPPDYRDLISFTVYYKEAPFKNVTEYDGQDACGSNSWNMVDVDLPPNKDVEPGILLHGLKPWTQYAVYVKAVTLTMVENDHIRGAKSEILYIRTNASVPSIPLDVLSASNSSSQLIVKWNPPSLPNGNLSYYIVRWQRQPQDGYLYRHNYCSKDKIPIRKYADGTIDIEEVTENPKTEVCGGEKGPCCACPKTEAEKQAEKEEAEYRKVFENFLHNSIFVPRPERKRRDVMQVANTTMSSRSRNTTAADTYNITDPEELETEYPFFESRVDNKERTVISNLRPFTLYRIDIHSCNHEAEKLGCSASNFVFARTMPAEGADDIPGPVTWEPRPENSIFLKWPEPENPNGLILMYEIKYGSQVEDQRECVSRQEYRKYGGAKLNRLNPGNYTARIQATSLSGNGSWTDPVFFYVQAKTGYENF
Description: Analytical size exclusion chromatography (SEC) with in-line static light scattering. […] All samples contained 25 μg of each protein diluted to a final volume of 50 μL in PBS, pH 7.2, before injection onto the SEC column onto a TSKgel G3000SW XL, 5 mm, 250 Å Analytical SEC column (Tosoh Biosciences) equilibrated in 10 mM phosphate, 150 mM NaCl, 0.02% sodium Azide at pH 6.8 using an Agilent 1100 HPLC system. Light scattering data for material eluting from the SEC column were collected using a miniDAWN static light scattering detector coupled to an in-line refractive index meter (Wyatt Technologies). Light scattering data were analyzed using the ASTRA V software provided by the manufacturer.
All samples were diluted to a final volume of 50 μL in PBS, pH 7.2 before SEC/static light scattering analysis.

human IGF-1R(1-903)-Fc [5] = biological target: T4, human IGF-1R(1-903)-Fc (human, UniProt P08069 31-933); assay: IGF-1 blocking ELISA at 320 nM IGF-1 His on biotinylated hIGF-1R-Fc
T4 construct: also called hIGF-1R-Fc; SDWT; not shown: human IgG1 Fc, C-terminal tag
T4 sequence (P08069 31-933): as above
Description: The dilutions were added to the plates in duplicate at 100 μL/well and the plates were incubated at RT for 1 hour. The plates were then washed four times with 200 μL/well PBST. An HRP-conjugated anti-Histag antibody (Penta-His HRP Conjugate, QIAGEN, Cat. No. 1014992) was diluted 1:1000 in PBST and added to plates at 100 μL/well, and the plates were incubated at RT for one hour. The plates were then washed four times with 200 μL/well PBST. SureBlue Reserve TMB Microwell Peroxidase Substrate (KPL, Cat. No. 53-00-01) was added to plates at 100 μL/well followed by 1% phosphoric acid at 100 μL/well once the desired reaction was observed. The absorbance of each well was determined at 450 nm, and the results were normalized and plotted against the log of antibody concentration.
Ligand Blocking Properties.

human IGF-1R(1-903)-Fc [6] = biological target: T4, human IGF-1R(1-903)-Fc; assay: IGF-2 blocking ELISA: antibody titrated in 640 nM IGF-2 His on biotinylated hIGF-1R-Fc on streptavidin plates, bound ligand detected with anti-His-HRP
sIGF-1R(1-903) [7] = biological target: T3, sIGF-1R(1-903); assay: equilibrium solution-phase SPR, free sIGF-1R(1-903) read on C06 surface
[8] = biological target: T5, hIGF-1R-Fc mutant SD018 (E665A) (human, UniProt P08069 31-933); assay: SPR: receptor-Fc captured on M13-C06 chip, then M13-C06 Fab; relative to wild type
T5 construct: not shown: human IgG1 Fc, C-terminal tag
T5 sequence (P08069 31-933 E695A): as the sequence (P08069 31-933) above, with E665A counted along it
Description: (§1) After, completion of the receptor-Fc loading step, flow rates were elevated to 5 μl/min. […] At the end of each sensorgram, the flow rate was elevated to 30 μl/min and the chip surface was regenerated by 2×10 μL injections of 0.1 M glycine, pH 2.

[9] = biological target: T6, hIGF-1R-Fc mutant SD002 (M156A) (human, UniProt P08069 31-933); assay: as above
T6 construct: not shown: human IgG1 Fc, C-terminal tag
T6 sequence (P08069 31-933 M186A): as the sequence (P08069 31-933) above, with M156A counted along it
Description: as §1

[10] = biological target: T7, hIGF-1R-Fc mutant SD003 (T188F) (human, UniProt P08069 31-933); assay: as above
T7 construct: not shown: human IgG1 Fc, C-terminal tag
T7 sequence (P08069 31-933 T218F): as the sequence (P08069 31-933) above, with T188F counted along it
Description: as §1

[11] = biological target: T8, hIGF-1R-Fc mutant SD006 (A227K) (human, UniProt P08069 31-933); assay: as above
T8 construct: not shown: human IgG1 Fc, C-terminal tag
T8 sequence (P08069 31-933 A257K): as the sequence (P08069 31-933) above, with A227K counted along it
Description: as §1

[12] = biological target: T9, hIGF-1R-Fc mutant SD019 (E739W, L741F) (human, UniProt P08069 31-933); assay: as above
T9 construct: not shown: human IgG1 Fc, C-terminal tag
T9 sequence (P08069 31-933 E769W/L771F): as the sequence (P08069 31-933) above, with E739W, L741F counted along it
Description: as §1

human IGF-1R(1-903)-Fc [13] = biological target: T4, human IGF-1R(1-903)-Fc; assay: as above
Description: as §1

[14] = biological target: T10, hIGF-1R-Fc mutant SD001 (Y28A) (human, UniProt P08069 31-933); assay: as above
T10 construct: not shown: human IgG1 Fc, C-terminal tag
T10 sequence (P08069 31-933 Y58A): as the sequence (P08069 31-933) above, with Y28A counted along it
Description: as §1

T1 sequence (P08069 31-1367, stated change not applied): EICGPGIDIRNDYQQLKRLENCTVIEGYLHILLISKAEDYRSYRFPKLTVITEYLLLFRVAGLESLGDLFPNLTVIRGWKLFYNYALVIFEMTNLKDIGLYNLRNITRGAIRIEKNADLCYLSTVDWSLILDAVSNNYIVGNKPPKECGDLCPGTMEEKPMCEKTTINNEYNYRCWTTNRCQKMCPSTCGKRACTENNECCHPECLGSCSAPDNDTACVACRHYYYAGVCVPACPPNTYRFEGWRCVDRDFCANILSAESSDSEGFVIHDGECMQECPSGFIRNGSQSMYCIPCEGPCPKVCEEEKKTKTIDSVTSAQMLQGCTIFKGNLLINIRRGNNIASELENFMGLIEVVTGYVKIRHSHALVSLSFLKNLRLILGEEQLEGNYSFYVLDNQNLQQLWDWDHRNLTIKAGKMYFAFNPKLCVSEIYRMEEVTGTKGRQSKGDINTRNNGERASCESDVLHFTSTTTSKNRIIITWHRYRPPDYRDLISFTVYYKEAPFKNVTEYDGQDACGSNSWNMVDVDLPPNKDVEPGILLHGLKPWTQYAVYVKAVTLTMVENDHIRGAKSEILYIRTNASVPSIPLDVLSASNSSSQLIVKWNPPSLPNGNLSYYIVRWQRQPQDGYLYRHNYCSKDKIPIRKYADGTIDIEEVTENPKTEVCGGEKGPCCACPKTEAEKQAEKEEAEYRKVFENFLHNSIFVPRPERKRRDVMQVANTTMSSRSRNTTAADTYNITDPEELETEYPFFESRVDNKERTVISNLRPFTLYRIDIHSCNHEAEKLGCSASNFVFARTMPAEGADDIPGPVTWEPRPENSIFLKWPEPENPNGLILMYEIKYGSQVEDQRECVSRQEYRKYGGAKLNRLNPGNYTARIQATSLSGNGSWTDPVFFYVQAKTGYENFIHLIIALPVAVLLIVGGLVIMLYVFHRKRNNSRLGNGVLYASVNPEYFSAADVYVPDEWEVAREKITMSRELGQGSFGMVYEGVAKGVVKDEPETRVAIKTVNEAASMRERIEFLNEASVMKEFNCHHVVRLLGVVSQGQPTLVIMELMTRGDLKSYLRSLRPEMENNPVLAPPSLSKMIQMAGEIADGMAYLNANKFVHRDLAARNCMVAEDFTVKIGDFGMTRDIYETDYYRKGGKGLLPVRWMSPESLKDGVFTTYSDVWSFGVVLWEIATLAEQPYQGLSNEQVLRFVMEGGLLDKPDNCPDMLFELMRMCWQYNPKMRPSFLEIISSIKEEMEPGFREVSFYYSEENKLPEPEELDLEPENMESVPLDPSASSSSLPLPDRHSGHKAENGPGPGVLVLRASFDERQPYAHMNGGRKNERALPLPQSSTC

EC50 [1]: 0.25 nM
IC50 (read off the curve) [2]: ~30 nM
reduction of surface IGF-1R after 24 hours (FACS, H322M cells) [3]: > 70%
molecular weight of the complex (sIGF-1R(1-903) [4]): 2 MDa
IC50 (read off the curve) (human IGF-1R(1-903)-Fc [5]): ~1 nM
IC50 (read off the curve) (human IGF-1R(1-903)-Fc [6]): ~1 nM
Kd (sIGF-1R(1-903) [7]): 0.1 nM
n (#C06 specific binding sites) (sIGF-1R(1-903) [7]): 1
B1: M13-C06 antibody (antibody, V domains shown)
VH: EVQLLESGGGLVQPGGSLRLSCAASGFTFSIYRMQWVRQAPGKGLEWVSGISPSGGTTWYADSVKGRFTISRDNSKNTLYLQMNSLRAEDTAVYYCARWSGGSGYAFDIWGQGTMVTVSS
VL: DIQMTQSPLSLSASVGDRVTITCQASRDIRNYLNWYQQKPGKAPKLLIYDASSLQTGVPSRFGGSGSGTDFSFTIGSLQPEDIATYYCQQFDSLPHTFGQGTKLEIK
notes: Fully human full-length antibody (ATCC PTA-7444); also called M13.C06.G4.P.agly; M13-C06.G4P.agly

Biacore Relative RUmax [8]: 1.7
Biacore Relative RUmax [9]: 1.2
Biacore Relative RUmax [10]: 1
Biacore Relative RUmax [11]: 1.7
Biacore Relative RUmax [12]: 1.9
Biacore Relative RUmax (human IGF-1R(1-903)-Fc [13]): 1
Biacore Relative RUmax [14]: 0.6
Kd (sIGF-1R(1-903) [7]): 0.6 nM
n (#C06 specific binding sites) (sIGF-1R(1-903) [7]): 2
B2: M13-C06 Fab (Fab, V domains shown)
VH: B1 VH
VL: B1 VL
notes: Fab made by enzymatic digestion of the IgG
